What follows are binders tested against T1, EGF receptor (on A431 cells) (UniProt P00533 25-1210, limits assumed) (assay: competition flow cytometry on A431 cells against mAb-108 (7.5 nM)).
T1 construct: whole, on cells; also called EGF receptors
Procedure: (§1) Unbound scFv proteins were removed by washing following centrifugation (repeated 2-3 times). […] After two washes, the cells were incubated with an APC-labeled (allophycocyanin) anti-mouse antibody (10 ug/ml) for 30 minutes on ice. After washing the cells two times to remove the secondary antibody, the cells were re-suspended in FACS buffer supplemented with propidium iodine (0.5 ug/ml), and analyzed by flow cytometry. […] Fab binding was detected using an anti-His antibody followed by an APC-labeled anti-mouse secondary antibody.
(§2) Cells were incubated with the scFv proteins at various concentrations after washing to remove unbound scFv's, and the cells were treated with the mAb108 as described above. All proteins were expressed in the periplasm. Table 11 summarizes the binding of the modified scFv's (pAcF and pAcF with PEG) relative to the wild type scFv: […]

Row | Binder | IC50 relative to wild type scFv [x] | IC50 [nM]
1 | pAcF-scFv-108-(S136) (scFv, p-acetyl-phenylalanine (pAcF) in place of Ser136, X stands for pAcF; also called Ser136pAcF; pAcF-scFv-(S136)) scFv: QVQLQQSGAELMKPGASVKISCKATGYTFSSYWIEWVKQRPGHGLEWIGEILPGSKKTNYNEKFKGKATFTADTSSNTAYMQFSSLTSEDSAVYYCARYYYRNDDYGMDYWGQGTSVTVSSGGGGSGGGGSGGGGXGGGGSEIHMTQTTSSLSASLGDRVTISCSASQDIRNYLNWYQQKPDGTVKLLIYYTSTLHSGVPSRFSGSGSGTDYSLTISNLEPEDIATYYCQQYSKIPYTFTGGTKLEIKRADAAEQKLISEEDLNSAVDHHHHHH | 1.6 | –
2 | scFv-108 Lys248pAcF (scFv, p-acetyl-phenylalanine (pAcF) in place of Lys248, X stands for pAcF) scFv: QVQLQQSGAELMKPGASVKISCKATGYTFSSYWIEWVKQRPGHGLEWIGEILPGSKKTNYNEKFKGKATFTADTSSNTAYMQFSSLTSEDSAVYYCARYYYRNDDYGMDYWGQGTSVTVSSGGGGSGGGGSGGGGSGGGGSEIHMTQTTSSLSASLGDRVTISCSASQDIRNYLNWYQQKPDGTVKLLIYYTSTLHSGVPSRFSGSGSGTDYSLTISNLEPEDIATYYCQQYSKIPYTFTGGTKLEIXRADAAEQKLISEEDLNSAVDHHHHHH | 2.1 | –
3 | scFv-108 wild type (periplasmic, VH-(GGGGS)4-VL-myc-6xHis) (scFv, also called WT scFv) scFv: QVQLQQSGAELMKPGASVKISCKATGYTFSSYWIEWVKQRPGHGLEWIGEILPGSKKTNYNEKFKGKATFTADTSSNTAYMQFSSLTSEDSAVYYCARYYYRNDDYGMDYWGQGTSVTVSSGGGGSGGGGSGGGGSGGGGSEIHMTQTTSSLSASLGDRVTISCSASQDIRNYLNWYQQKPDGTVKLLIYYTSTLHSGVPSRFSGSGSGTDYSLTISNLEPEDIATYYCQQYSKIPYTFTGGTKLEIKRADAAEQKLISEEDLNSAVDHHHHHH | 1 | 8.1
4 | pAcF-scFv-108-(S136) conjugated to 5K PEG (scFv, p-acetyl-phenylalanine (pAcF) in place of Ser136, conjugated to mono-functional hydroxylamine 5K PEG, also called Ser136pAcF-5K PEG) scFv: QVQLQQSGAELMKPGASVKISCKATGYTFSSYWIEWVKQRPGHGLEWIGEILPGSKKTNYNEKFKGKATFTADTSSNTAYMQFSSLTSEDSAVYYCARYYYRNDDYGMDYWGQGTSVTVSSGGGGSGGGGSGGGGXGGGGSEIHMTQTTSSLSASLGDRVTISCSASQDIRNYLNWYQQKPDGTVKLLIYYTSTLHSGVPSRFSGSGSGTDYSLTISNLEPEDIATYYCQQYSKIPYTFTGGTKLEIKRADAAEQKLISEEDLNSAVDHHHHHH | 6.3 | –
5 | scFv-108 His144pAcF (scFv, p-acetyl-phenylalanine (pAcF) in place of His144, X stands for pAcF) scFv: QVQLQQSGAELMKPGASVKISCKATGYTFSSYWIEWVKQRPGHGLEWIGEILPGSKKTNYNEKFKGKATFTADTSSNTAYMQFSSLTSEDSAVYYCARYYYRNDDYGMDYWGQGTSVTVSSGGGGSGGGGSGGGGSGGGGSEIXMTQTTSSLSASLGDRVTISCSASQDIRNYLNWYQQKPDGTVKLLIYYTSTLHSGVPSRFSGSGSGTDYSLTISNLEPEDIATYYCQQYSKIPYTFTGGTKLEIKRADAAEQKLISEEDLNSAVDHHHHHH | 2.6 | –
6 | pAcF-scFv-108-(S131) (scFv, p-acetyl-phenylalanine (pAcF) in place of Ser131, S131 is the second serine of the GlySer linker; X stands for pAcF; also called Ser131pAcF; S131Am) scFv: QVQLQQSGAELMKPGASVKISCKATGYTFSSYWIEWVKQRPGHGLEWIGEILPGSKKTNYNEKFKGKATFTADTSSNTAYMQFSSLTSEDSAVYYCARYYYRNDDYGMDYWGQGTSVTVSSGGGGSGGGGXGGGGSGGGGSEIHMTQTTSSLSASLGDRVTISCSASQDIRNYLNWYQQKPDGTVKLLIYYTSTLHSGVPSRFSGSGSGTDYSLTISNLEPEDIATYYCQQYSKIPYTFTGGTKLEIKRADAAEQKLISEEDLNSAVDHHHHHH | 1.3 | –
7 | scFv-108 Ser259pAcF (scFv, p-acetyl-phenylalanine (pAcF) in place of Ser259, X stands for pAcF) scFv: QVQLQQSGAELMKPGASVKISCKATGYTFSSYWIEWVKQRPGHGLEWIGEILPGSKKTNYNEKFKGKATFTADTSSNTAYMQFSSLTSEDSAVYYCARYYYRNDDYGMDYWGQGTSVTVSSGGGGSGGGGSGGGGSGGGGSEIHMTQTTSSLSASLGDRVTISCSASQDIRNYLNWYQQKPDGTVKLLIYYTSTLHSGVPSRFSGSGSGTDYSLTISNLEPEDIATYYCQQYSKIPYTFTGGTKLEIKRADAAEQKLIXEEDLNSAVDHHHHHH | 0.5 | –
8 | scFv-108 Ser193pAcF (scFv, p-acetyl-phenylalanine (pAcF) in place of Ser193, X stands for pAcF) scFv: QVQLQQSGAELMKPGASVKISCKATGYTFSSYWIEWVKQRPGHGLEWIGEILPGSKKTNYNEKFKGKATFTADTSSNTAYMQFSSLTSEDSAVYYCARYYYRNDDYGMDYWGQGTSVTVSSGGGGSGGGGSGGGGSGGGGSEIHMTQTTSSLSASLGDRVTISCSASQDIRNYLNWYQQKPDGTVKLLIYYTXTLHSGVPSRFSGSGSGTDYSLTISNLEPEDIATYYCQQYSKIPYTFTGGTKLEIKRADAAEQKLISEEDLNSAVDHHHHHH | 1.8 | –
9 | pAcF-scFv-108-(S131) conjugated to 5K PEG (scFv, p-acetyl-phenylalanine (pAcF) in place of Ser131, conjugated to mono-functional hydroxylamine 5K PEG, also called Ser131pAcF-5K PEG) scFv: QVQLQQSGAELMKPGASVKISCKATGYTFSSYWIEWVKQRPGHGLEWIGEILPGSKKTNYNEKFKGKATFTADTSSNTAYMQFSSLTSEDSAVYYCARYYYRNDDYGMDYWGQGTSVTVSSGGGGSGGGGXGGGGSGGGGSEIHMTQTTSSLSASLGDRVTISCSASQDIRNYLNWYQQKPDGTVKLLIYYTSTLHSGVPSRFSGSGSGTDYSLTISNLEPEDIATYYCQQYSKIPYTFTGGTKLEIKRADAAEQKLISEEDLNSAVDHHHHHH | 5 | –
10 | scFv-108 Tyr190pAcF (scFv, p-acetyl-phenylalanine (pAcF) in place of Tyr190, X stands for pAcF) scFv: QVQLQQSGAELMKPGASVKISCKATGYTFSSYWIEWVKQRPGHGLEWIGEILPGSKKTNYNEKFKGKATFTADTSSNTAYMQFSSLTSEDSAVYYCARYYYRNDDYGMDYWGQGTSVTVSSGGGGSGGGGSGGGGSGGGGSEIHMTQTTSSLSASLGDRVTISCSASQDIRNYLNWYQQKPDGTVKLLIXYTSTLHSGVPSRFSGSGSGTDYSLTISNLEPEDIATYYCQQYSKIPYTFTGGTKLEIKRADAAEQKLISEEDLNSAVDHHHHHH | 2.1 | –
11 | pAcF-scFv-108-(L156) (scFv, p-acetyl-phenylalanine (pAcF) in place of Leu156, L156 lies in the VL chain; X stands for pAcF; also called Leu156pAcF) scFv: QVQLQQSGAELMKPGASVKISCKATGYTFSSYWIEWVKQRPGHGLEWIGEILPGSKKTNYNEKFKGKATFTADTSSNTAYMQFSSLTSEDSAVYYCARYYYRNDDYGMDYWGQGTSVTVSSGGGGSGGGGSGGGGSGGGGSEIHMTQTTSSLSASXGDRVTISCSASQDIRNYLNWYQQKPDGTVKLLIYYTSTLHSGVPSRFSGSGSGTDYSLTISNLEPEDIATYYCQQYSKIPYTFTGGTKLEIKRADAAEQKLISEEDLNSAVDHHHHHH | 1.8 | –
12 | pAcF-scFv-108-(L156) conjugated to 5K PEG (scFv, p-acetyl-phenylalanine (pAcF) in place of Leu156, conjugated to mono-functional hydroxylamine 5K PEG, also called Leu156pAcF-5K PEG) scFv: QVQLQQSGAELMKPGASVKISCKATGYTFSSYWIEWVKQRPGHGLEWIGEILPGSKKTNYNEKFKGKATFTADTSSNTAYMQFSSLTSEDSAVYYCARYYYRNDDYGMDYWGQGTSVTVSSGGGGSGGGGSGGGGSGGGGSEIHMTQTTSSLSASXGDRVTISCSASQDIRNYLNWYQQKPDGTVKLLIYYTSTLHSGVPSRFSGSGSGTDYSLTISNLEPEDIATYYCQQYSKIPYTFTGGTKLEIKRADAAEQKLISEEDLNSAVDHHHHHH | 2.9 | –

The binders below were run against T1, EGF receptor (on A431 cells) (assay: Flow cytometry competition on A431 cells expressing EGF receptors: cells incubated with the scFv at varied concentration and washed, then mAb108 (competitor, 7.5 nM) detected with APC-labeled anti-mouse antibody; y axis Median).
Procedure: as §1, §2

Row | Binder | IC50 [nM]
13 | pAcF-scFv-108-(S136) (scFv, p-acetyl-phenylalanine (pAcF) in place of Ser136, X stands for pAcF; also called Ser136pAcF; pAcF-scFv-(S136)) scFv: QVQLQQSGAELMKPGASVKISCKATGYTFSSYWIEWVKQRPGHGLEWIGEILPGSKKTNYNEKFKGKATFTADTSSNTAYMQFSSLTSEDSAVYYCARYYYRNDDYGMDYWGQGTSVTVSSGGGGSGGGGSGGGGXGGGGSEIHMTQTTSSLSASLGDRVTISCSASQDIRNYLNWYQQKPDGTVKLLIYYTSTLHSGVPSRFSGSGSGTDYSLTISNLEPEDIATYYCQQYSKIPYTFTGGTKLEIKRADAAEQKLISEEDLNSAVDHHHHHH | 13.1
14 | pAcF-scFv-108-(S136) conjugated to 5K PEG (scFv, p-acetyl-phenylalanine (pAcF) in place of Ser136, conjugated to mono-functional hydroxylamine 5K PEG, also called Ser136pAcF-5K PEG) scFv: QVQLQQSGAELMKPGASVKISCKATGYTFSSYWIEWVKQRPGHGLEWIGEILPGSKKTNYNEKFKGKATFTADTSSNTAYMQFSSLTSEDSAVYYCARYYYRNDDYGMDYWGQGTSVTVSSGGGGSGGGGSGGGGXGGGGSEIHMTQTTSSLSASLGDRVTISCSASQDIRNYLNWYQQKPDGTVKLLIYYTSTLHSGVPSRFSGSGSGTDYSLTISNLEPEDIATYYCQQYSKIPYTFTGGTKLEIKRADAAEQKLISEEDLNSAVDHHHHHH | 51

What follows are binders tested against T1, EGF receptor (on A431 cells) (assay: flow cytometry on A431 cells; Fab detected with anti-His antibody and APC-labeled anti-mouse antibody).
Procedure: as §1
PEGylation of the Fab fragments results in a minimal decrease in the affinity of the fragments to the EGF receptors. Binding conditions were as described previously.

Row | Binder | EC50 [nM] | EC50 relative to wild type Fab [x]
15 | Fab-108 wild type (Fab, they may include leaders; also called WT Fab; Fab108 WT) light: TMELEIHMTQTTSSLSASLGDRVTISCSASQDIRNYLNWYQQKPDGTVKLLIYYTSTLHSGVPSRFSGSGSGTDYSLTISNLEPEDIATYYCQQYSKIPYTFTGGTKLEIKRADAAKLEIKRTVAAPSVFIFPPSDEQLKSGTASVVCLLNNFYPREAKVQWKVDNALQSGNSQESVTEQDSKDSTYSLSSTLTLSKADYEKHKVYACEVTHQGLSSPVTKSFNRGEC heavy: QVQLLEQVQLQQSGAELMKPGASVKISCKATGYTFSSYWIEWVKQRPGHGLEWIGEILPGSKKTNYNEKFKGKATFTADTSSNTAYMQFSSLTSEDSAVYYCARYYYRNDDYGMDYWGQGTSVTVSSAGPSVFPLAPSSKSTSGGTAALGCLVKDYFPEPVTVSWNSGALTSGVHTFPAVLQSSGLYSLSSVVTVPSSSLGTQTYICNVNHKPSNTKVDKKVEPKSCDKHHHHHH | 4 | 1

From patent US20080050374A1 (AMBRX, published 2008)
